# Results from patent publication US20250270518A1, “NOVEL LUCIFERASES WITH IMPROVED PROPERTIES” (SVAR Life Science AB, priority 2021, published 2025).
# Entries after “also recorded” stand apart in the source; their conditions may differ.
# Legend:
# HEK293 cells [1] = experiment: Transient transfection of HEK293 cells, luciferase genes under constitutive CMV promoter, luciferase activity in supernatant (FIG. 3A); format: cell-based, human; settings: 18 hours at 37° C., QuantiLuc Gold, compared with native Metridia longa luciferase and other luciferases
# Procedure: FIG. 3A illustrates the response of HEK293 cells following transient transfection of cells with the novel Svar vector encoding the luciferases genes indicated, each under the control of a constitutive CMV promoter, and co-transfection of cells with firefly luciferase under the control of a constitutive thymidine kinase (TK) promoter. Luciferase activity was quantified in the cell supernatant after 18 hours incubation of cells at 37° C. using a commercially available coelenterazine based “glo” substrate (QuantiLuc Gold, Invivogen). The cells were then lysed and firefly luciferase activity was quantified with BrightGlo (Promega).
# A series of deletion mutants of the 5′ coding region of the native Metridia longa luciferase gene were designed in silico, synthetized in vitro and tested in transient transfection experiments. The nucleotide sequence of the native Metridia longa gene luciferase gene is illustrated in FIG. 1 and the amino acid sequence in FIG. 2.
# A series of random mutation were introduced into the coding sequence of the native Metridia longa luciferase gene using oligonucleotides carrying a single or multiple mutations (FIG. 4). The oligonucleotides were synthetized in vitro and tested in transient transfection experiments in human the HEK293 cell line originally derived from human embryonic kidney cells grown in tissue culture (ATCC Catalogue CRL-1573).
# [2] = tested on: NFkB recognition sequence chimeric promoter in HEK293 cells; experiment: Clonal HEK293 cell line stably transfected with NFkB responsive reporter gene, increasing TNF (FIG. 7); format: cell-based, human; settings: stable HEK293 clone, increasing TNF for 6 hours at 37° C., QuantiLuc Gold
# Excerpt: FIG. 7 illustrates the response of a clonal cell line of HEK293 cells stably transfected with a reporter gene comprising the sequence set forth in SEQ ID NO: 1 under the control of a chimeric promoter consisting of a SV40 minimal promoter and a 6-fold tandem repeat of the canonical NFkB recognition sequence treated with increasing concentrations of TNF[…].
# HEK293 cells were transfected with the Svar luciferase Luc-1 gene under the control of a chimeric promoter consisting a SV40 minimal promoter and a 6-fold tandem repeat of the canonical NFkB recognition sequence and stable clones were isolated and characterized.
# HEK293 cells [3] = experiment: Rate of loss of luciferase activity in supernatant of transiently transfected HEK293 cells (FIG. 6); format: cell-based, human; settings: CMV promoter, room temperature, QuantiLuc Gold, compared with wild type Metridia longa luciferase
# Excerpt: FIG. 6A illustrates the rate of loss of luciferase activity in the supernatant of HEK293 cells following transient transfection of cells with the luciferases genes indicated, each under the control of a constitutive CMV promoter, and quantification of luciferase activity at increasing times at room temperature using a commercially available coelenterazine based “glo” substrate (QuantiLuc, Gold Invivogen).
# [4] = tested on: NFkB recognition sequence chimeric promoter in HEK293 cells; experiment: Transient transfection of HEK293 cells, luciferase genes under NFkB responsive chimeric promoter, treated with TNF (FIG. 3B); format: cell-based, human; settings: compared with native Metridia longa luciferase gene; for luminescence / luciferase activity, relative light units (RLU): 100 ng/ml TNF for 6 hours at 37° C.
# Procedure: FIG. 3B illustrates the response of HEK293 cells following transient transfection of cells with the novel Svar vector encoding either the wild type Metridia longa luciferase gene, or the Svar luciferase 1 or the Svar luciferase 2 genes each under the control of a chimeric promoter consisting of a SV40 minimal promoter and a 6-fold tandem repeat of the canonical NFkB recognition sequence and treated with 100 ng/ml of TNF[…] for 6 hours at 37° C. prior to quantification of the luciferase signal using a commercially available coelenterazine based “glo” substrate (QuantiLuc Gold, Invivogen).
# [5] = tested on: NFkB recognition sequence chimeric promoter in K562 cells; experiment: K562 clonal cell lines stably transfected with NFkB responsive reporter gene, increasing TNF (FIG. 8); format: cell-based, human; settings: stable K562 clones, increasing TNF for 6 hours at 37° C., compared with firefly luciferase under same promoter
# Excerpt: FIG. 8 illustrates a comparison of the response of K562 cells stably transfected with either the luciferase gene comprising the sequence set forth in SEQ ID NO: 1 under the control of a chimeric promoter consisting of a SV40 minimal promoter and a 6-fold tandem repeat of the canonical NFkB recognition sequence and K562 cells stably transfected with the firefly luciferase gene comprising the open reading frame encoding the firefly luciferase protein under the control of the same NFkB responsive promoter and treatment of cells with increasing concentrations of TNF[…] for 6 hours at 37° C.
# K562 cells originally derived from a chronic myelogenous leukemia (ATCC, catalogue number CCL-243) were transfected with either the Svar luciferase Luc-1 gene or firefly luciferase gene each under the control of a chimeric promoter consisting a SV40 minimal promoter and a 6-fold tandem repeat of the canonical NFkB recognition sequence. Stable clones were isolated and characterized. The clonal cell lines were treated with increasing concentrations of TNF[…] for 6 hours at 37° C. (FIG. 8).
# [6] = tested on: transfected mammalian cells; experiment: Comparison of luciferase properties with other luciferases (Table 2); format: cell-based; settings: relative to other native or engineered luciferases reported in the literature
# Excerpt: FIG. 12 illustrates Table 2 showing a comparison of the properties of the luciferase encoded by the sequence set forth in SEQ ID NO: 1 and SEQ ID NO:2 and comprising the amino acid sequence encoded by the sequence set forth in AA1 and AA2 relative to those of other native or engineered luciferases reported in the literature.
Molecule,"luciferase activity / light output (brightness), relative light units (RLU) (HEK293 cells [1])",relative light units (RLU) and fold induction relative to control not treated with TNF [2],signal stability and/or signal duration (HEK293 cells [3]),"luminescence / luciferase activity, relative light units (RLU) [4]","luminescence / luciferase activity, relative light units (RLU) ([4]; listed as Svar luciferase 1)",dynamic range relative to control samples in the absence of the pharmacology active substance [4],relative light units (RLU) values [5],toxicity for transfected mammalian cells [6],"luciferase activity / light output (brightness), relative light units (RLU) (HEK293 cells [1]; listed as Svar luciferase 2)","luminescence / luciferase activity, relative light units (RLU) ([4]; listed as Svar luciferase 2)"
"SVAR Luc-1: Engineered luciferase derived from Metridia longa luciferase, amino acid sequence SEQ ID NO: AA1, encoded by SEQ ID NO: 1 (protein, NO.1 (1)..(450) SEQ ID NO.1) MEAEAERGKSPGKKLPLAVIMEIEANAFKAGCTRGCLICLSKIKCTAKMKVYIPGRCHDYGGDKKTGQAGIVGAIVDIPEISGFKEMEPMEQFIAQVDRCASCTTGCLKGLANVKCSELLKKWLPDRCASFADKIQKEVHNIKGMAGDR",increased light output (brightness),high levels of both relative light units (RLU) and fold induction,increased signal stability and/or signal duration,increased luminescence including increased light output (brightness),enhanced luciferase activity relative to the wild type gene,higher dynamic range,markedly higher relative light units (RLU) values,absence of toxicity,,
"SVAR Luc-2: Engineered luciferase derived from Metridia longa luciferase, isoleucine 106 to valine, SEQ ID NO: AA2, encoded by SEQ ID NO: 2 (protein, NO.2 (1)..(450) SEQ ID NO.2) MEAEAERGKSPGKKLPLAVIMEIEANAFKAGCTRGCLICLSKIKCTAKMKVYIPGRCHDYGGDKKTGQAGIVGAIVDIPEISGFKEMEPMEQFVAQVDRCASCTTGCLKGLANVKCSELLKKWLPDRCASFADKIQKEVHNIKGMAGDR",improved activity relative to the native Metridia longa luciferase; also recorded: equivalent or slightly reduced activity relative to SVAR Luc-1 luciferase,,increased signal stability and/or signal duration,increased luminescence including increased light output (brightness),,higher dynamic range,,,increased light output (brightness),enhanced luciferase activity relative to the wild type gene
